How the values were obtained:
[1] = target: T1, rat SNAP-tagged mGlu2 receptor (wild-type rat mGlu2 subunit with an HA-tag and a SNAP inserted just after the … (rat, UniProt P31421 19-872, SNAP tag labelled with SNAP-Lumi4-Tb in the TR-FRET binding assay)); test: TR-FRET saturation binding on HEK293 cells with Lumi4-Tb-labelled rat SNAP-mGlu2, anti-6His-d2; active conformation (1 uM LY379268)
T1 construct: whole, on cells; Transiently transfected HEK293 cells; also called SNAP-mGlu2; mGluR2; not shown: HA-tag inserted just after the signal peptide; SNAP tag inserted just after the signal peptide
T1 sequence (P31421 19-872): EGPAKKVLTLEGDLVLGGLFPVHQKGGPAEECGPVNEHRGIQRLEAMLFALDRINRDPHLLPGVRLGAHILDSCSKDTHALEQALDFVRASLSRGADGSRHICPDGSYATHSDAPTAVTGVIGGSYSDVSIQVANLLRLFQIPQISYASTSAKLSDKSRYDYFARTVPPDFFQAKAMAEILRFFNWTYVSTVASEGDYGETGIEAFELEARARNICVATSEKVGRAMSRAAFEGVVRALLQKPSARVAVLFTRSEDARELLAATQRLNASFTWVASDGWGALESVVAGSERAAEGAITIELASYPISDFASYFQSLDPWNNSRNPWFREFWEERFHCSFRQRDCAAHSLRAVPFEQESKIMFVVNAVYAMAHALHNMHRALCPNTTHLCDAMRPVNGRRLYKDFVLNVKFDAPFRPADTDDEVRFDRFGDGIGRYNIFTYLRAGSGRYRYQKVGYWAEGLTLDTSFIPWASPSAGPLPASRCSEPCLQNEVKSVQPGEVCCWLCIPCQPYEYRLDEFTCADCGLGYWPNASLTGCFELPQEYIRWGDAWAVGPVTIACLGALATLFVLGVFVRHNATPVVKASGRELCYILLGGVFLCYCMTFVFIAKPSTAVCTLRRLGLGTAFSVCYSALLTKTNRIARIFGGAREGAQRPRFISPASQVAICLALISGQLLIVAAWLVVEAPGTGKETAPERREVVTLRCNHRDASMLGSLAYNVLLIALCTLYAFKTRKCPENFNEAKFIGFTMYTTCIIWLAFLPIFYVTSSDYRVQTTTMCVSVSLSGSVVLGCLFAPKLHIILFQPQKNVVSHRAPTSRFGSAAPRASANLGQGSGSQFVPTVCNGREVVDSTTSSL
Experimental: (§1) Each datapoint represents the mean±s.d. of an individual experiment performed in triplicate.
(§2) Binding experiments by TR-FRET. HEK293 cells (ATCC CRL-1573) were transfected with rat SNAP-tagged mGlu2 receptors (Maurel et al. Nature Methods 2008). 24 h after transfection, cells were labeled in 150 mm cell culture plate with 100 nM SNAP-Lumi4Tb in DMEM-GlutaMAX for 1 h at 37° C., and then washed 3 times with Krebs buffer (10 mM Hepes pH7.4, 146 mM NaCl, 4.2 mM KCl, 1 mM CaCl2, 0.5 mM MgCl2, 5.6 mM glucose and bovine serum albumin 0.1%). Cells were detached using cell dissociation buffer (Sigma aldrich) transferred at 10 000 cells per well in a white 384-well plate (Greiner bio-one, PS, F-bottom, small volume, Hibase, medium binding). Increasing concentration of His-tagged nanobodies together with either 1 μM LY379268 (Tocris, Bio-techne, France) or 1 μM LY341495 (Tocris, Bio-techne, France) and with 200 nM of anti-6His-d2 (Tocris, Bio-techne, France) were applied on Lumi4Tb-labeled cells in a final volume of 20 μL and incubated overnight at 20° C. FRET signal was determined by measuring the sensitized acceptor emission (665 nm) and Tb donor emission (620 nm) using a 50 μs delay and 450 us integration time upon excitation at 337 nm on a PHERAstar FS plate-reader (BMG LabTech, Ortenberg, Germany). TR-FRET (or HTRF) ratio (665 nm/620 nm×10⁴, Cisbio patent 8 U.S. Pat. No. 5,527,684) was calculated for preventing interferences due to medium variability and chemical compound or to normalize experiments when using cells expressing different receptor levels.

[2] = target: T1, rat SNAP-tagged mGlu2 receptor …; test: cell-based or functional assay
[3] = target: T1, rat SNAP-tagged mGlu2 receptor …; test: TR-FRET saturation binding on HEK293 cells with Lumi4-Tb-labelled rat SNAP-mGlu2, anti-6His-d2; inactive conformation (1 uM LY341495)
Experimental: as §1, §2

[4] = target: T1, rat SNAP-tagged mGlu2 receptor …; test: apparent affinity, TR-FRET saturation binding on HEK293 cells with SNAP-mGlu2, in the presence of agonist LY379268 1 uM
Experimental: as §2, with “Increasing concentration of His-tagged nanobodies together with either 1 μM LY379268 (Tocris, Bio-techne, France) or 1 μM LY341495 (Tocris, Bio-techne, France) and with 200 nM of anti-6His-d2 (Tocris, Bio-techne, France) were applied on Lumi4Tb-labeled cells in a final volume of 20 μL and incubated overnight at 20° C.” left out, “levels. […]” for “levels.”

[5] = target: T1, rat SNAP-tagged mGlu2 receptor …; test: cell-based or functional assay; remark: listed apart in the source
[6] = target: T1, rat SNAP-tagged mGlu2 receptor …; test: TR-FRET saturation binding on HEK293 cells with SNAP-mGlu2, in the presence of agonist LY379268 1 uM; reference IGF1168
Experimental: as §2, with “Increasing concentration of His-tagged nanobodies together with either 1 μM LY379268 (Tocris, Bio-techne, France) or 1 μM LY341495 (Tocris, Bio-techne, France) and with 200 nM of anti-6His-d2 (Tocris, Bio-techne, France) were applied on Lumi4Tb-labeled cells in a final volume of 20 μL and incubated overnight at 20° C.” left out, “levels. […]” for “levels.”

[7] = target: T2, mouse mGlu2 receptor in brain tissue sections of wild-type C57BL/6J mice (mouse, UniProt Q14BI2 19-872); test: ex vivo immunohistofluorescence on mouse brain sections; no labeling in sections from mGlu2-/- mouse
T2 construct: whole, on cells; Endogenous receptor in fixed tissue sections; mGlu2-/- mouse sections were the negative control
T2 sequence (Q14BI2 19-872): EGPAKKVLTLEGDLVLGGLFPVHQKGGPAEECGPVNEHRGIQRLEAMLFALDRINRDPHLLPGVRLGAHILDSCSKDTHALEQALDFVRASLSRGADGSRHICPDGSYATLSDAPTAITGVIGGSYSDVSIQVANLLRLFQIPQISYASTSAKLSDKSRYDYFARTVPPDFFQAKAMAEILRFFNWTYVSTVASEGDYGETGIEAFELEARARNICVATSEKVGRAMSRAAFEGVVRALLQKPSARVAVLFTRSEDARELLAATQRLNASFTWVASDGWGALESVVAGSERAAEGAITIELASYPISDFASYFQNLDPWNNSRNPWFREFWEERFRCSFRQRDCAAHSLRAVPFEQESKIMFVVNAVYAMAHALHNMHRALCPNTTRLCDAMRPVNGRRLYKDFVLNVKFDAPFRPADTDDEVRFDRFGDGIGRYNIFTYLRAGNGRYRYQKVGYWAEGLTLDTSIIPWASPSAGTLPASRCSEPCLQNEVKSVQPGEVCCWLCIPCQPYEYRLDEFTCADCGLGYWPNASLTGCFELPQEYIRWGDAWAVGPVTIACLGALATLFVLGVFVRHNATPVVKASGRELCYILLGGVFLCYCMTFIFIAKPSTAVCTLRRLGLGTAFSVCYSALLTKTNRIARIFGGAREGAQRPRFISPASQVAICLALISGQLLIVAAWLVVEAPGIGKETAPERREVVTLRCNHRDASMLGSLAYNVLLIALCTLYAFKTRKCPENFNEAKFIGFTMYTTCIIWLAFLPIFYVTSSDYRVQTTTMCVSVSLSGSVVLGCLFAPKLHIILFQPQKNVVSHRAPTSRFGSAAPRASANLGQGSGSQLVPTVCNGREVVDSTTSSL
Experimental: Histological processing of brains. Wild-type C57BL/6J mice were purchased from Janvier Labs and brains from mGlu2−/− mice were kindly provided by Dr. Gonzalez-Maeso. Mice were anesthetized (Euthasol Vet 8%, Alcyon, Pau, France) and sacrificed by a cardiac perfusion of 4% paraformaldehyde (PFA). Brains were extracted and fixed in a 4% PFA solution (Euromedex, Souffelweyersheim, France) overnight at 4° C. Brains were rinsed in PBS and cryoprotected in a 30% sucrose solution for 4 days at 4° C. Brains were then included in OCT (Tissue-Tek, Sakura Finetek, Villeneuve d′Asq, France), quickly frozen in acetone chilled on dry ice and conserved at −80° C. until use. Frozen brains included in OCT, were put at −20° C. 24 h prior cryo-sectioning. They were then mounted on a cryostat (Leica, Nanterre, France) and 16 um coronal or sagittal sections were performed and directly mounted on Superfrost Plus glass slides (Microm) and kept at −20° C., until use. For immunohistofluorescence experiments, coronal and sagittal brain tissue sections of WT and mGlu2^{-/-} mice were blocked 1 h at 25° C. with a blocking solution (3% BSA, 0.1% Triton X100 in PBS) and incubated with IGF1202-d2 (200 nM), overnight at 4° C., to label mGlu2 receptors. Sections were washed with PBS with distilled water and mounted using […]

pKd [1] | pEC50 of the PAM effect on G protein coupling (IP1 accumulation with 0.6 nM LY379268, EC20) [2] | pKd [3] | Kd [4] | pEC50, PAM potency (IP1 accumulation) [5] | fold increase in the apparent affinity compared to IGF1168 [6] | binding result [7] | Binder
8.77 -log10 M | 7.94 -log10 M | 8.49 -log10 M |  |  |  |  | IGF-1252 (IGF-1159 HcAb IGF-1168) (VHH, Bivalent biparatopic nanobody, two VHH in tandem) QVQLVQSGGGLVQAGGSLRLSCAASGRTFSSFAMAWFRQAPGKEREFVAAISWSGSTGHADSVKGRFTITRDNAKNTVFLQMNSLKPEDTAVYYCALGKGSSYYYSPSGYDYWGQGTQVTVSSEPKIPQPQPKPQPQPQPQPQPKPQPKPEPQVQLVQSGGGLVQAGGSLRLSCAASVRFFSINTMGWYRQAPGKQRELVADITSSGSTNYADSGKGRFTISRDNAKNTVYLQMNRLKPEDTAVYYCHADYKYTTHNTAWGQGTQVTVSSLEHHHHHH
 |  |  | 4.93 nM | 7.22 -log10 M |  |  | IGF-1168 nanobody (VHH, PAM nanobody, mGlu2 specific; not shown: His tag (nanobodies in the assay are His-tagged)) VHH: QVQLVQSGGGLVQAGGSLRLSCAASVRFFSINTMGWYRQAPGKQRELVADITSSGSTNYADSGKGRFTISRDNAKNTVYLQMNRLKPEDTAVYYCHADYKYTTHNTAWGQGTQVTVSS
8.23 -log10 M | 7.2 -log10 M |  |  |  |  |  | IGF-1262 (IGF-1168 HcAb IGF-1168) (VHH) QVQLVQSGGGLVQAGGSLRLSCAASVRFFSINTMGWYRQAPGKQRELVADITSSGSTNYADSGKGRFTISRDNAKNTVYLQMNRLKPEDTAVYYCHADYKYTTHNTAWGQGTQVTVSSEPKIPQPQPKPQPQPQPQPQPKPQPKPEPQVQLVQSGGGLVQAGGSLRLSCAASVRFFSINTMGWYRQAPGKQRELVADITSSGSTNYADSGKGRFTISRDNAKNTVYLQMNRLKPEDTAVYYCHADYKYTTHNTAWGQGTQVTVSSLEHHHHHH
9.34 -log10 M | 8.25 -log10 M | 8.95 -log10 M |  |  |  |  | IGF-1201 (IGF-1168 GS IGF-1159) (VHH, Bivalent biparatopic nanobody, two VHH in tandem) QVQLVQSGGGLVQAGGSLRLSCAASVRFFSINTMGWYRQAPGKQRELVADITSSGSTNYADSGKGRFTISRDNAKNTVYLQMNRLKPEDTAVYYCHADYKYTTHNTAWGQGTQVTVSSGGGGSGGGGSGGGGSQVQLVQSGGGLVQAGGSLRLSCAASGRTFSSFAMAWFRQAPGKEREFVAAISWSGSTGHADSVKGRFTITRDNAKNTVFLQMNSLKPEDTAVYYCALGKGSSYYYSPSGYDYWGQGTQVTVSSLEHHHHHH
9.27 -log10 M | 8.81 -log10 M | 8.87 -log10 M | 0.3 nM | 9.16 -log10 M | 10 fold |  | IGF-1202 (IGF-1168 HcAb IGF-1159), biparatopic IGF1202-tag6xHIS (VHH) QVQLVQSGGGLVQAGGSLRLSCAASVRFFSINTMGWYRQAPGKQRELVADITSSGSTNYADSGKGRFTISRDNAKNTVYLQMNRLKPEDTAVYYCHADYKYTTHNTAWGQGTQVTVSSEPKIPQPQPKPQPQPQPQPQPKPQPKPEPQVQLVQSGGGLVQAGGSLRLSCAASGRTFSSFAMAWFRQAPGKEREFVAAISWSGSTGHADSVKGRFTITRDNAKNTVFLQMNSLKPEDTAVYYCALGKGSSYYYSPSGYDYWGQGTQVTVSSLEHHHHHH
 |  |  |  |  |  | binds | IGF1202-d2 (red-labeled IGF1202) (VHH, d2 fluorophore coupled with d2-NHS, conditions set for 2 to 3 fluorophores per nanobody; sites not stated, also called red-labled IGF1202) QVQLVQSGGGLVQAGGSLRLSCAASVRFFSINTMGWYRQAPGKQRELVADITSSGSTNYADSGKGRFTISRDNAKNTVYLQMNRLKPEDTAVYYCHADYKYTTHNTAWGQGTQVTVSSEPKIPQPQPKPQPQPQPQPQPKPQPKPEPQVQLVQSGGGLVQAGGSLRLSCAASGRTFSSFAMAWFRQAPGKEREFVAAISWSGSTGHADSVKGRFTITRDNAKNTVFLQMNSLKPEDTAVYYCALGKGSSYYYSPSGYDYWGQGTQVTVSSLEHHHHHH
8.99 -log10 M | 7.65 -log10 M | 8.54 -log10 M |  |  |  |  | IGF-1251 (IGF-1159 GS IGF-1168) (VHH, Bivalent biparatopic nanobody, two VHH in tandem) QVQLVQSGGGLVQAGGSLRLSCAASGRTFSSFAMAWFRQAPGKEREFVAAISWSGSTGHADSVKGRFTITRDNAKNTVFLQMNSLKPEDTAVYYCALGKGSSYYYSPSGYDYWGQGTQVTVSSGGGGSGGGGSGGGGSQVQLVQSGGGLVQAGGSLRLSCAASVRFFSINTMGWYRQAPGKQRELVADITSSGSTNYADSGKGRFTISRDNAKNTVYLQMNRLKPEDTAVYYCHADYKYTTHNTAWGQGTQVTVSSLEHHHHHH
8.51 -log10 M | 7.62 -log10 M |  |  |  |  |  | IGF-1261 (IGF-1168 GS IGF-1168) (VHH) QVQLVQSGGGLVQAGGSLRLSCAASVRFFSINTMGWYRQAPGKQRELVADITSSGSTNYADSGKGRFTISRDNAKNTVYLQMNRLKPEDTAVYYCHADYKYTTHNTAWGQGTQVTVSSGGGGSGGGGSGGGGSQVQLVQSGGGLVQAGGSLRLSCAASVRFFSINTMGWYRQAPGKQRELVADITSSGSTNYADSGKGRFTISRDNAKNTVYLQMNRLKPEDTAVYYCHADYKYTTHNTAWGQGTQVTVSSLEHHHHHH
